This is an account of results in PMC3961392 (PLoS Pathogens, 2014).

Data set [1] deals with the molecule itself. In words: SEC; 10-15 µg of purified enzyme (low enzyme concentration) on a 10 mL Superdex 200 column; 50 mM Tris pH 7.5, 200 mM NaCl; masses and oligomerization states from a Bio-Rad gel filtration standard curve. A general note: SEC sorts molecules by how far they enter the pores of the column.
Data set [2] deals with the molecule itself. In words: SEC; data not shown; oligomerization state of the mutant enzymes, method as told for the A3 enzymes (Superdex 200, 50 mM Tris pH 7.5, 200 mM NaCl).

B1: APOBEC3F (enzyme, human, UniProt Q8IUX4 1-373, looked up)
chain: MKPHFRNTVERMYRDTFSYNFYNRPILSRRNTVWLCYEVKTKGPSRPRLDAKIFRGQVYSQPEHHAEMCFLSWFCGNQLPAYKCFQITWFVSWTPCPDCVAKLAEFLAEHPNVTLTISAARLYYYWERDYRRALCRLSQAGARVKIMDDEEFAYCWENFVYSEGQPFMPWYKFDDNYAFLHRTLKEILRNPMEAMYPHIFYFHFKNLRKAYGRNESWLCFTMEVVKHHSPVSWKRGVFRNQVDPETHCHAERCFLSWFCDDILSPNTNYEVTWYTSWSPCPECAGEVAEFLARHSNVNLTIFTARLYYFWDTDYQEGLRSLSQEGASVEIMGYKDFKYCWENFVYNDDEPFKPWKGLKYNFLFLDSKLQEILE
notes: also called A3F; not shown: GST, N-terminal, cleaved
Consider B1, for which the “stoichiometry N” value in data set [1] amounted to 4.

B2: APOBEC3F NGM mutant (enzyme, human, UniProt Q8IUX4 1-373, looked up)
chain: MKPHFRNTVERMYRDTFSYNFYNRPILSRRNTVWLCYEVKTKGPSRPRLDAKIFRGQVYSQPEHHAEMCFLSWFCGNQLPAYKCFQITWFVSWTPCPDCVAKLAEFLAEHPNVTLTISAARLYYYWERDYRRALCRLSQAGARVKIMDDEEFAYCWENFVYSEGQPFMPWYKFDDNYAFLHRTLKEILRNGMEAMYPHIFYFHFKNLRKAYGRNESWLCFTMEVVKHHSPVSWKRGVFRNQVDPETHCHAERCFLSWFCDDILSPNTNYEVTWYTSWSPCPECAGEVAEFLARHSNVNLTIFTARLYYFWDTDYQEGLRSLSQEGASVEIMGYKDFKYCWENFVYNDDEPFKPWKGLKYNFLFLDSKLQEILE
notes: also called A3F NGM; A3F 190NGM192; not shown: GST, N-terminal, cleaved
Consider B2, for which, in data set [2], the “stoichiometry N” value was 4.

A word on the stoichiometry N: it is a count of units in the complex or per binding partner.
